Data on nine molecules can be found in patent US20260217797A1 (Takeda / Millennium, published 2026).

The chains are these.
B1: A-16 (antibody, V domains shown)
VH: QVQLVESGGGLVQPGRSLRLSCAASGFTFDDYAMHWVRQAPGKGLEWVSGISWNSGTIGYADSVKGRFIISRDNAKNSLYLQMNSLRGEDMALYYCGKDRKREDPSLGGMDVWGQGTTVTVSS
VL: SYELTQPPSVSVAPGQTARITCGGNNIGSKSVHWYQQKPGQAPVLVVYDDTDRPSGIPERFSGSNSGNTATLTISRVEAGDEADYYCQVWDSSSDHYVFGTGTKLTVL
B2: A-2 (antibody, V domains shown)
VH: EVQLVESGGGLIQPGGSLRLSCAASGFTVSSNYMSWVRQAPGKGLEWVSIIYSGGSTYYADSVKGRFTISRDNSKNTLYLQMNSLRAEDTAVYYCARAPSGEYGDPIYYWGQGTLVTVSS
VL: QSVLTQPPSASASLGASVKLTCTLSSGHSTYTIAWHQQQPEKGPRYLMKLNSDGSHSKGDGIPDRFSGSSSGAERYLTISSLQSEDEADYYCQTWGTGNHWVFGGGTKLTVL
B3: A-18 (antibody, V domains shown)
VH: EVQLLESGGGLVQPGGSLRLSCAASGFTFSRYWMHWVRQAPGKGLVWVSRINSDGSSTTYADSVKGRFTISRDNAKNTLYLQMNSLRAEDTAVYYCARELYYYDSRGAEEGEGWFDPWGQGTLVTVSS
VL: QSVLTQPPSVSGAPGQRVTISCTGISSNIGAGYDVHWYQQLPGTAPKLLIYGNSNRPSGVPDRFSASKSGTSAPLAITGLQAEDEADYYCQSSDRSLSGSVFGTGTKLTVL
B4: A-11 (antibody, V domains shown)
VH: EVQLVESGAEVKKPGSSVMVSCKASGGTFSRYAISWVRQAPGQGLEWMGGIIPVFGIVHYAQKFQGRVTITADKSTSTAYMELSSLRSEDTAAYYCARDRQQQPSPYYYHGMDVWGQGTTVTVSS
VL: DIRLTQSPSSLSASVGDRVTITCQASQDISNYLNWYQQKPGKAPKLLIYDASNLETGVPTRFSGSGSGTDFTFTISSLQPEDIATYYCQQYDNLPLFGGGTKVEIK
B5: A-13 (antibody, V domains shown)
VH: QVQLVQSGAEVKKPGASVKVSCKASGYTFTDYYMHWVRQAPGQGLEWMGWINPNSGGTNSAQKFQGRVTMTRDTSINTAYMELSRLRSDDTAVYFCARDSHLAMVRGDFEYWGQGTLVTVSS
VL: QSVLTQPASVSGSPGQSITISCTGTSSDVESYNVVSWYQQHPGKAPKLMIYEVSKRPSGVSHRFSGSKSGNTASLTISGLQAEDESDYYCCSYAGNSTWVFGGGTKLTVL
B6: A-1 (antibody, V domains shown)
VH: EVQLVESGGGVVQPGGSLRLSCAASGFAFSTYWMHWVRQAPGKGLVWVSRINGDGSGTNYADSVKGRFTISRDNAKSTLYLQMNSLRTEDTAVYYCTRTAGRGAYDFGRFDPWGQGTLVTVSS
VL: DIVLTQTPLSLPVTPGEPASISCRSSQSLLHSNGYNYLDWYLQKAGQSPQLLVFLGSNRASGVPDRFSGSASGTDFTLKISRVEAEDVGVYYCMQALQIPITFGQGTRLEIK
B7: A-19 (antibody, V domains shown)
VH: QVQLVQSGAEVKKPGESLKISCKGSGYSFTSYWIAWVRQMPGKGLEWMGIIYPGDSDTSYSPSFQGQVTISADKSISTAYLQWSSLKASDTAMYYCARGPNKYNWFDTWGQGTLVTVSS
VL: not shown
B8: A-9 (antibody, V domains shown)
VH: EVQLVESGGGLVKPGRSLRLSCAASGFTFADYAMSWFRQAPGKGLEWVGFIRSKPYGGTTEYAASVKGRFTISRDDSKSIAYLQMNSLKTEDTAVYYCSRDPWYCSGGDCYAVTGSWFDPWGQGTLVTVSS
VL: DIVLTQSPSSLSASVGDRVTITCQASQDIKKYLNWYQQKPGKAPKLLIYDVSNLETGVPSRFSGSGSGTDFTFTISSLQPEDVAIYYCQQYDNLPQTFGQGTKVDIK
B9: A-10 (antibody, V domains shown)
VH: QVQLVQSGGGVVQPGRSLRLSCAASGFTFSSYGMHWVRQAPGKGLEWVAVISYDGSNKYYTDSVKGRFTISRDNSKNTLYLQMNSLRAEDTAVYYCAKDLPREVYYDILTGYDNPYYYYGMDVWGQGTTVTVSS
VL: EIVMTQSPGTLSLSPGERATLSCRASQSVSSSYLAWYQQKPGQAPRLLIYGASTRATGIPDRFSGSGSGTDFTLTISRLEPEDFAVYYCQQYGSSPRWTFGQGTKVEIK

The target of the first assay is T1, SARS-CoV-2 wild type spike protein (on reporter virus particles) (SARS-CoV-2, UniProt P0DTC2 14-1273). The assay can be described thus: cell-based or functional assay.
B1: the “PsV Neut Assay IC50” value is 1.24 nM.

On to B2, for which the “PsV Neut Assay IC50” value was found to be 0.169 nM.

As to B3, the “PsV Neut Assay IC50” value came out at 9.88 nM.

For B4, the “PsV Neut Assay IC50” value was 0.613 nM.

On to B5, for which the “PsV Neut Assay IC50” value came to 0.155 nM.

For B6, the “PsV Neut Assay IC50” value stood at 0.116 nM.

In the case of B7, the “PsV Neut Assay IC50” value came out at 34.1 nM.

For B8, the “PsV Neut Assay IC50” value was determined as 0.208 nM.

Consider B9, for which the “PsV Neut Assay IC50” value amounted to 1.29 nM.

The next assay concerns the target T1, SARS-CoV-2 wild type spike protein (on …). Kind of assay: cell-based or functional assay. The source holds these as a separate data set.
As for B1, the “PsV neutralization IC50” value was 0.057 µg/mL and the “PsV neutralization IC90” value was determined as 0.399 µg/mL.

Regarding B3, the “PsV neutralization IC50” value was 0.303 µg/mL and the “PsV neutralization IC90” value is 1.82 µg/mL.

B8: the “PsV neutralization IC50” value is 0.011 µg/mL and the “PsV neutralization IC90” value was determined as 0.164 µg/mL.

Another assay concerns the target SARS-CoV-2 S Trimer (SARS-CoV-2, UniProt P0DTC2 16-1213). The assay can be described thus: Octet BLI, IgG, avid.
As to B1, binding was put at a Kd of 1.15 nM.

Take B2: the dissociation constant (Kd) is 1.14 nM.

In the case of B3, the Kd came out at 1.69 nM.

In the case of B4, the Kd turned out to be 1.29 nM.

Turning to B5, binding was put at a Kd of 0.843 nM.

Consider B6, for which the Kd was 0.865 nM.

Consider B7, for which the affinity, expressed as Kd, was 0.987 nM.

B8: binding was put at a Kd of 1 nM.

As to B9, the Kd was 0.854 nM.

The target in the next assay is T1, SARS-CoV-2 wild type spike protein (on …). The assay can be described thus: cell-based or functional assay. This is another data set of the same source.
As for B1, the “SARS2 IC50” value was determined as 0.61 nM.

On to B3, for which the “SARS2 IC50” value is 5.9 nM.

Take B8: the “SARS2 IC50” value stood at 0.03 nM.

For the next assay, the target named is SARS-CoV-2 WT RBD (SARS-CoV-2, UniProt P0DTC2 319-541). The assay can be described thus: Octet BLI single point, monovalent. On the technique in general: In BLI a coated tip is dipped into the sample, and binding shifts an interference pattern.
In turn, B1 displayed a Kd of 2.09 nM.

Molecule B3 registered a Kd of 0.527 nM.

A further assay has as its target T1, SARS-CoV-2 wild type spike protein (on …). Kind of assay: cell-based or functional assay. This is another data set of the same source.
Take B1: the “PsV IC50, Test 1” value is 0.28 nM and the “PsV IC50, Test 2” value turned out to be 0.54 nM.

B3: the “PsV IC50, Test 1” value worked out at 0.14 nM and the “PsV IC50, Test 2” value is 2.78 nM.

For the molecule B8, the “PsV IC50, Test 1” value stood at 0.03 nM and the “PsV IC50, Test 2” value was 0.04 nM.

The target in a further assay is SARS-CoV-1 spike protein (SARS-CoV-1, UniProt P59594 14-1255). Kind of assay: cell-based or functional assay.
Consider B3, for which the “PsV neutralization IC50” value came out at 0.043 µg/mL and the “PsV neutralization IC90” value was 0.046 µg/mL.

Another assay deals with T1, SARS-CoV-2 wild type spike protein (on …). Kind of assay: cell-based or functional assay. This is another data set of the same source.
Take B3: the “PsV neutralization IC50” value was 0.076 µg/mL and the “PsV neutralization IC90” value was found to be 1.38 µg/mL.

In a further assay the target is Bat coronavirus WIV16 spike protein (Bat coronavirus WIV16). The assay can be described thus: cell-based or functional assay.
As for B3, the “PsV neutralization IC50” value was found to be 0.045 µg/mL and the “PsV neutralization IC90” value came to 0.324 µg/mL.

In another assay the target is T1, SARS-CoV-2 wild type spike protein (on …). Kind of assay: cell-based or functional assay. The source holds these as a separate data set.
For the molecule B1, the “PSV IC50” value was 0.186 µg/mL.

As for B2, the “PSV IC50” value came to 0.025 µg/mL.

With B4, the “PSV IC50” value stood at 0.092 µg/mL.

In the case of B5, the “PSV IC50” value amounted to 0.023 µg/mL.

With B6, the “PSV IC50” value is 0.017 µg/mL.

For the molecule B7, the “PSV IC50” value was 5.12 µg/mL.

As to B9, the “PSV IC50” value amounted to 0.194 µg/mL.

In another assay the target is SARS-CoV-2 Spike S1-His (SARS-CoV-2, UniProt P0DTC2 16-685). The assay can be described thus: Octet BLI, IgG, monovalent.
B1 yielded a Kd of 4.85 nM.

The molecule B2 came in with a Kd of 14.5 nM.

The molecule B3 registered a Kd of 1.09 nM.

B4 yielded a Kd of 6.92 nM.

Take B5: the Kd turned out to be 4.91 nM.

In turn, B6 registered a Kd of 9.6 nM.

B7 gave a Kd of 1.15 nM.

Take B8: the Kd amounted to 5.89 nM.

Take B9: the affinity, expressed as Kd, was 9.59 nM.

A further assay addresses SARS-CoV1 Spike [change] (SARS-CoV-1, UniProt P59594 14-667). Kind of assay: Octet BLI, IgG, monovalent.
Turning to B1, the binding result is “no binding”.

As to B2, the binding result is reported as “no binding”.

Molecule B3 registered a Kd of 7.43 nM.

As to B4, the binding result was “no binding”.

For B5, the binding result is “no binding”.

With B6, the binding result is “no binding”.

As for B7, the binding result is given as “no binding”.

For B8, the binding result was “no binding”.

B9: the binding result is on record as “no binding”.

Another assay has as its target T2, MERS-CoV [change] (MERS-CoV, UniProt K9N5Q8 18-725).
T2 sequence: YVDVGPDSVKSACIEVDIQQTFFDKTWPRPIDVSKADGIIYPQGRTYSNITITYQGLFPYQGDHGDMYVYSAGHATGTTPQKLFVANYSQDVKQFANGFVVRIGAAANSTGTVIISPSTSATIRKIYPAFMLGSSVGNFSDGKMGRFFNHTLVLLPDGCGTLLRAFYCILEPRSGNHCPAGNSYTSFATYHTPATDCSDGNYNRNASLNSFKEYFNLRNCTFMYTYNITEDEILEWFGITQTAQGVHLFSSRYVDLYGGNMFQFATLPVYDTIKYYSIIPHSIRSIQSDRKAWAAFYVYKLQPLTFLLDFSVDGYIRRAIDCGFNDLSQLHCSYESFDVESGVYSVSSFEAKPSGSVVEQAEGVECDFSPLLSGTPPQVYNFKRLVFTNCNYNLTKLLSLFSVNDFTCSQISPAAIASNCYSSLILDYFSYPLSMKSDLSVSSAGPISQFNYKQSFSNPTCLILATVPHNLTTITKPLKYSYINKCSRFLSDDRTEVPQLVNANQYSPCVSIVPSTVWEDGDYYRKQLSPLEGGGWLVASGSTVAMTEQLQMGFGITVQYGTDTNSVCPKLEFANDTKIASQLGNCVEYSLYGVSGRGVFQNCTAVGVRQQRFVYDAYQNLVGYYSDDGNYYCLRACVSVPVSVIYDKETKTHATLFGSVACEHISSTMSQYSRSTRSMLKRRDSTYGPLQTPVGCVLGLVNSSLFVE
The assay can be described thus: Octet BLI, IgG, monovalent.
For B1, the binding result was “no binding”.

With B2, the binding result is listed as “no binding”.

Regarding B3, the binding result is reported as “no binding”.

As to B4, the binding result is recorded as “no binding”.

On to B5, for which the binding result was “no binding”.

As to B6, the binding result is recorded as “no binding”.

Consider B7, for which the binding result is given as “no binding”.

For the molecule B8, the binding result is “no binding”.

In the case of B9, the binding result was “no binding”.

Broadly, the Kd is a measure of binding affinity in units of concentration.
